What was measured:
Assay type in all cases: cell-based, mouse
[1] = tested on: Let-7 miRNA binding sites; assay: Let-7 luciferase reporter assay; conditions: BDNF 4 hr, transcription blockade; control reporters unchanged
Excerpt: Let-7 luciferase reporters (gift of G. Hannon) harbor a wildtype or a mutant Let-7 miRNA binding site. The Let-7 miRNA binding sites are derived from a short 3′UTR segment of C. elegans Lin41 mRNA containing two adjacent proven Let-7 miRNA biding sites and are cloned into 3′UTR of firefly luciferase in a pcDNA backbone. Mutations in seed regions of both Let-7 binding sites were made for a negative control reporter, which was documented not regulated by endogenous Let-7 miRNAs. Co-transfection of the pCSK-lacZ vector, which constitutively expresses β-galactosidase and is not regulated by shRNA, served to normalize transfection efficiency and extract recovery for each sample in all reporter assays. The DNA amounts used for each well (24 well plate) were 15 ng of any luciferase reporter, 85 ng of β-gal (CSK-LacZ), and/or 75-300 ng of CXCR4 shRNA. Each reporter experiment included extracts from cells transfected with pcDNA3.1 alone as a reference control. […] Cell lysates were collected in 1×lysis buffer (reporter lysis buffer, Promega), and luciferase (Promega) and chemiluminescent β-gal (Roche) reporter assays carried out according to manufacturer instructions using a plate-reading luminometer (Perkin Elmer). […] When required, fold change was calculated by dividing normalized stimulated samples by normalized unstimulated samples.

[2] = tested on: miRNA reporter (CXCR4 shRNA); assay: CXCR4 miRNA-reporter luciferase assay; conditions: BDNF stimulation, Actinomycin-D
Excerpt: The following CXCR4 siRNA/miRNA reporter assay constructs (Addgene) were used: siRNA reporter (PCD FLIP, Plasmid 12567), miRNA reporter (PCD FL4X, 12565), control luciferase reporter (PCD FLOX, 12563), and CXCR4 shRNA (pLKO.1 puro CXCR4 siRNA-2, 12272) (Wang et al., 2006). Let-7 luciferase reporters with wild-type or mutated Let-7 miRNA binding sites were gifts from G. Hannon (Liu et al., 2005b). 3′UTR reporters were constructed by inserting 3′UTRs from GluR1, CaMKIIu or KCC2 downstream of luciferase in pGL3-Control vector (Promega). A Lin28-resistant Let-7 pre-miRNA was generated by mutation of the conserved Lin28 “GGAG” recognition motif to “GtAt” in the terminal loop of pLV-hsa-let-7a-1 (Biosettia). […]
44 hours post-transfection, hippocampal cultures were treated with serum-reduced media (0.5% B27) and Actinomycin-D (0.5 ng/mL) as previously described, followed by BDNF stimulation 100 ng/mL for 4 hours. Cell lysates were collected in 1×lysis buffer (reporter lysis buffer, Promega), and luciferase (Promega) and chemiluminescent β-gal (Roche) reporter assays carried out according to manufacturer instructions using a plate-reading luminometer (Perkin Elmer). […] When required, fold change was calculated by dividing normalized stimulated samples by normalized unstimulated samples.

TRBP = assay: Immunoblotting for TRBP; conditions: 5 min after BDNF; +/-0.86
Procedure: Primary cultures of mouse hippocampal neurons (DIV 14 15) were incubated in serum-reduced medium (0.5% B27 supplement) for 2 hours, followed by […] Actinomycin-D for 10-20 min. Bath application of BDNF (100 ng/mL) was for designated periods (5 min-2 hours). The cultures were washed 3 times and harvested on ice with lysis buffer (50 mM Hepes, 150 mM NaCl, 10% Glycerol, 1 mM EDTA, 1% Triton-X-100, 0.2% SDS) plus freshly added protease inhibitor cocktail (Roche) and PMSF. Protein concentration was determined by Bradford Assay. If required, lysates were treated with Lambda Protein Phosphatase according to manufacturer's instructions (New England Biolabs […]). Equal amounts of lysate protein were resolved on SDS-PAGE gels, and electrotransferred to PVDF membrane. […]

luciferase reporter containing Let-7 binding sites [1]: significantly induced
B1: BDNF: brain-derived neurotrophic factor, a neurotrophin used to stimulate hippocampal neurons (protein, UniProt P23560 19-247, looked up)
Neurotrophic factor BDNF …: APMKEANIRGQGGLAYPGVRTHGTLESVNGPKAGSRGLTSLADTFEHVIEELLDEDQKVRPNEENNKDADLYTSRVMLSSQVPLEPPLLFLLEEYKNYLDAANMSMRVRRHSDPARRGELSVCDSISEWVTAADKKTAVDMSGGTVTVLEKVPVSKGQLKQYFYETKCNPMGYTKEGCRGIDKRHWNSQCRTTQSYVRALTMDSKKRIGWRFIRIDTSCVCTLTIKRGR
miRNA-mediated suppression of miRNA reporter by shCXCR4 [2]: greatly enhanced miRNA-mediated suppression | total TRBP protein levels, fold increase (TRBP): 2.61 fold
